Laboratory results published in paper PMC3598503 (2013).
Bridges are numbered along the chain shown (N, C = ends). Where no end group is shown, it is not given here.

Biological target: T1, p32 (Homo sapiens, UniProt Q07021)
T1 chain: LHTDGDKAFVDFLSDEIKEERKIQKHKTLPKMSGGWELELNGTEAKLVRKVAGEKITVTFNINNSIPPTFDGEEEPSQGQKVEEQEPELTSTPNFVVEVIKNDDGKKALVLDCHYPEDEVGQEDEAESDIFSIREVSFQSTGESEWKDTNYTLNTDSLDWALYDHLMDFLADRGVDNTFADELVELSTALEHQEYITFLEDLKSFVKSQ
Assay: SPR

B1: Lyp-1 (peptide)
chain: CGNKRTRGC
modifications: disulfide 1-9
Kd: 10.6 nM
